Where two headings read alike, the source gives them in different places. Bridge positions count the residues as written; N and C are the ends. Peptide text beside a SMILES is read from it. * marks the point of attachment. DOTA = O=C(O)CN1CCN(CC(=O)O)CCN(CC(=O)*)CCN(CC(=O)O)CC1
Legend:
[1] = system: T47D tumor bearing SCID mice; assay: In vivo biodistribution in T47D tumor bearing SCID mice; conditions: 4 hours post-injection, n = 4
Text: (§1) In vivo iodistribution studies. Four- to 5-week old female ICR SCID ([…]) outbred mice were obtained from Taconic (Germantown, N.Y.). The mice were housed five animals per cage in sterile micro isolator cages in a temperature- and humidity-controlled room with a 12-hour light/12-hour dark schedule. The animals were fed autoclaved rodent chow (Ralston Purina Company, St. Louis, Mo.) and water ad libitum. Animals were housed one week prior to inoculation of tumor cells and anesthetized for injections with isoflurane (Baxter Healthcare Corp., Deerfield, Ill.) at a rate of 2.5% with 0.4L oxygen through a non-rebreathing anesthesia vaporizer.
(§2) Human breast cancer MB231 and T47D cells were injected on the bilateral subcutaneous (s.c.) flank with ˜5×10^6 cells in a suspension of 100 μl normal sterile saline per injection site. MB231 and T47D cells were allowed to grow in vivo two to three weeks post inoculation developing tumors ranging in sizes from 0.02-1.30 grams. The biodistribution and uptake of ^111In-DOTA-Phe^19-STh or ^111In-DOTA-6-Ahx-Phe^19-STh in tumor bearing SCID mice was studied. The mice (average weight, 25 g) were injected with aliquots (50-100 μl) of the radiolabeled peptide solution (55-75 kBq) in each animal via the tail vein. Tissues, organs and tumors were excised from the animals sacrificed at 1 hr, 4 hrs and 24 hrs p.i. For blocking studies, an access of non-radioactive 6-Ahx-Phe^19-STh (100 μg) was also injected along with the radiolabeled peptide solution. The radioactivity was measured in a NaI counter and the percent-injected dose per organ and the percent-injected dose per gram tissue were calculated (Tables 5 and 6). Animal studies were conducted in accordance with the highest standards of care as outlined in the NIH guide for Care and Use of Laboratory Animals and the Policy and Procedures for Animal Research at the Harry S. Truman Memorial VA Hospital and according to approved protocols.

[2] = as above; conditions: female, ICR SCID, mouse, iv, total radioactivity, n = 4; for tissue uptake at 1 h / dose excreted at 1 h: 1 hour post-injection; for tissue uptake at 24 h / dose excreted at 24 h: 24 hours post-injection
Text: as §1, §2

[3] = T47D tumor, T47D tumor, read-out: biodistribution, Tumor
[4] = blood, read-out: biodistribution, Blood
[5] = heart, read-out: biodistribution, Heart
[6] = kidney, read-out: biodistribution, Kidney
[7] = large intestine, read-out: biodistribution, Large Intestine
[8] = liver, read-out: biodistribution, Liver
[9] = lung, read-out: biodistribution, Lung
[10] = muscle, read-out: biodistribution, Muscle
[11] = pancreas, read-out: biodistribution, Pancreas
[12] = small intestine, read-out: biodistribution, Small Intestine
[13] = spleen, read-out: biodistribution, Spleen
[14] = stomach, read-out: biodistribution, Stomach
[15] = urine, read-out: biodistribution, Urine (Avg % ID)

Structure (SMILES): CC(C)C[C@@H]1NC(=O)[C@H](CCC(=O)O)NC(=O)[C@@H]2CSSC[C@@H]3NC(=O)[C@H](C)NC(=O)[C@@H]4CCCN4C(=O)[C@H](CC(N)=O)NC(=O)[C@H](CSSC[C@H](NC(=O)[C@H](Cc4ccc(O)cc4)NC(=O)[C@H](CC(N)=O)NC(=O)[C@H](CO)NC(=O)[C@H](CO)NC(=O)[C@H](CC(N)=O)NC(=O)CN4CCN(CC(=O)O)CCN(CC(=O)O)CCN(CC(=O)O)CC4)C(=O)N2)NC(=O)[C@H](CSSC[C@@H](C(=O)N[C@@H](Cc2ccccc2)C(=O)O)NC(=O)CNC(=O)[C@H]([C@@H](C)O)NC3=O)NC1=O [^111In-DOTA-Phe^19-STh, metal not drawn] ({DOTA}-NSSNYCCELCCNPACTGCF-OH; disulfide 6-11, 7-15, 10-18)
- biodistribution, Heart [1]: 0.00 ± 0.00 % ID/gm
- tissue uptake at 1 h ([2]; T47D tumor, T47D tumor, Blocking (100 μg non-radioactive 6-Ahx-Phe^19-STh co-injected), read-out: biodistribution, Tumor): 0.43 ± 0.2 %ID/g
- tissue uptake at 1 h [2, 3]: 0.67 ± 0.23 %ID/g
- tissue uptake at 4 h ([2]; T47D tumor, T47D tumor, 4 hours post-injection, read-out: biodistribution, Tumor): 0.17 ± 0.16 %ID/g
- tissue uptake at 24 h [2, 3]: 0.14 ± 0.12 %ID/g
- tissue uptake at 1 h ([2]; blood, Blocking (100 μg non-radioactive 6-Ahx-Phe^19-STh co-injected), read-out: biodistribution, Blood): 0.57 ± 0.19 %ID/g
- tissue uptake at 1 h [2, 4]: 0.82 ± 0.34 %ID/g
- tissue uptake at 4 h ([2]; blood, 4 hours post-injection, read-out: biodistribution, Blood): 0.01 ± 0.01 %ID/g
- tissue uptake at 24 h [2, 4]: 0.02 ± 0.01 %ID/g
- dose excreted at 24 h ([2]; faeces, read-out: biodistribution, Feces (Avg % ID)): 1.4 ± 0.7%
- tissue uptake at 1 h ([2]; heart, Blocking (100 μg non-radioactive 6-Ahx-Phe^19-STh co-injected), read-out: biodistribution, Heart): 0.13 ± 0.1 %ID/g
- tissue uptake at 1 h [2, 5]: 0.15 ± 0.11 %ID/g
- tissue uptake at 24 h [2, 5]: 0.08 ± 0.08 %ID/g
- tissue uptake at 1 h ([2]; kidney, Blocking (100 μg non-radioactive 6-Ahx-Phe^19-STh co-injected), read-out: biodistribution, Kidney): 5.88 ± 1.47 %ID/g
- tissue uptake at 1 h [2, 6]: 4.7 ± 1.4 %ID/g
- tissue uptake at 4 h ([2]; kidney, 4 hours post-injection, read-out: biodistribution, Kidney): 2.02 ± 0.35 %ID/g
- tissue uptake at 24 h [2, 6]: 1.04 ± 0.33 %ID/g
- tissue uptake at 1 h ([2]; large intestine, Blocking (100 μg non-radioactive 6-Ahx-Phe^19-STh co-injected), read-out: biodistribution, Large Intestine): 0.17 ± 0.06 %ID/g
- tissue uptake at 1 h [2, 7]: 0.57 ± 0.21 %ID/g
- tissue uptake at 4 h ([2]; large intestine, 4 hours post-injection, read-out: biodistribution, Large Intestine): 1.74 ± 1.04 %ID/g
- tissue uptake at 24 h [2, 7]: 0.1 ± 0.03 %ID/g
- tissue uptake at 1 h ([2]; liver, Blocking (100 μg non-radioactive 6-Ahx-Phe^19-STh co-injected), read-out: biodistribution, Liver): 0.19 ± 0.04 %ID/g
- tissue uptake at 1 h [2, 8]: 0.26 ± 0.12 %ID/g
- tissue uptake at 4 h ([2]; liver, 4 hours post-injection, read-out: biodistribution, Liver): 0.06 ± 0.01 %ID/g
- tissue uptake at 24 h [2, 8]: 0.03 ± 0.01 %ID/g
- tissue uptake at 1 h ([2]; lung, Blocking (100 μg non-radioactive 6-Ahx-Phe^19-STh co-injected), read-out: biodistribution, Lung): 0.45 ± 0.16 %ID/g
- tissue uptake at 1 h [2, 9]: 0.56 ± 0.19 %ID/g
- tissue uptake at 4 h ([2]; lung, 4 hours post-injection, read-out: biodistribution, Lung): 0.09 ± 0.06 %ID/g
- tissue uptake at 24 h [2, 9]: 0.06 ± 0.03 %ID/g
- tissue uptake at 1 h ([2]; muscle, Blocking (100 μg non-radioactive 6-Ahx-Phe^19-STh co-injected), read-out: biodistribution, Muscle): 0.18 ± 0.08 %ID/g
- tissue uptake at 1 h [2, 10]: 0.19 ± 0.08 %ID/g
- tissue uptake at 4 h ([2]; muscle, 4 hours post-injection, read-out: biodistribution, Muscle): 0.06 ± 0.04 %ID/g
- tissue uptake at 24 h [2, 10]: 0.04 ± 0.03 %ID/g
- tissue uptake at 1 h ([2]; pancreas, Blocking (100 μg non-radioactive 6-Ahx-Phe^19-STh co-injected), read-out: biodistribution, Pancreas): 0.16 ± 0.07 %ID/g
- tissue uptake at 1 h [2, 11]: 0.21 ± 0.09 %ID/g
- tissue uptake at 4 h ([2]; pancreas, 4 hours post-injection, read-out: biodistribution, Pancreas): 0.04 ± 0.05 %ID/g
- tissue uptake at 24 h [2, 11]: 0.02 ± 0.03 %ID/g
- tissue uptake at 1 h ([2]; small intestine, Blocking (100 μg non-radioactive 6-Ahx-Phe^19-STh co-injected), read-out: biodistribution, Small Intestine): 0.25 ± 0.1 %ID/g
- tissue uptake at 1 h [2, 12]: 1.37 ± 0.55 %ID/g
- tissue uptake at 4 h ([2]; small intestine, 4 hours post-injection, read-out: biodistribution, Small Intestine): 0.44 ± 0.07 %ID/g
- tissue uptake at 24 h [2, 12]: 0.09 ± 0.02 %ID/g
- tissue uptake at 1 h ([2]; spleen, Blocking (100 μg non-radioactive 6-Ahx-Phe^19-STh co-injected), read-out: biodistribution, Spleen): 0.12 ± 0.07 %ID/g
- tissue uptake at 1 h [2, 13]: 0.19 ± 0.16 %ID/g
- tissue uptake at 4 h ([2]; spleen, 4 hours post-injection, read-out: biodistribution, Spleen): 0.13 ± 0.15 %ID/g
- tissue uptake at 24 h [2, 13]: 0.12 ± 0.08 %ID/g
- tissue uptake at 1 h ([2]; stomach, Blocking (100 μg non-radioactive 6-Ahx-Phe^19-STh co-injected), read-out: biodistribution, Stomach): 0.61 ± 0.64 %ID/g
- tissue uptake at 1 h [2, 14]: 0.53 ± 0.47 %ID/g
- tissue uptake at 4 h ([2]; stomach, 4 hours post-injection, read-out: biodistribution, Stomach): 0.17 ± 0.06 %ID/g
- tissue uptake at 24 h [2, 14]: 0.02 ± 0.01 %ID/g
- dose excreted at 1 h ([2]; urine, Blocking (100 μg non-radioactive 6-Ahx-Phe^19-STh co-injected), read-out: biodistribution, Urine (Avg % ID)): 93.1 ± 1.5%
- dose excreted at 1 h [2, 15]: 86.4 ± 5%
- dose excreted at 4 h ([2]; urine, 4 hours post-injection, read-out: biodistribution, Urine (Avg % ID)): 96.1 ± 1%
- dose excreted at 24 h [2, 15]: 97.8 ± 0.7%

— US20030232013A1, “Therapeutic and diagnostic targeting of cancers cells with tumor homing peptides” (priority 2002, published 2003)
